Laboratory results as given in patent US20090312403A1.

How the values were obtained:
[1] = target: mouse B6 class I antigens (H-2^b: D^b or K^b) on RMA-S cells (mouse); assay: RMA-S cells incubated with peptide (25 ug/ml), flow cytometry with FITC anti-D^b or anti-K^b
[2] = target: mouse B6 class I antigens (H-2^b: D^b or K^b) on RMA-S cells (mouse); assay: binding of 9mer peptide to mouse B6 (H-2^b) class I antigens, RMA-S cell assay

Binder	Binding Affinity to Mouse MHC Class I (% increase of D^b or K^b on RMA-S cells) [1]	Binding Affinity to Mouse MHC Class I [2]
CMTWNQMNL [WT1 peptide p235-243 (…)]	33.6%	
SCLESQPAI [WT1 peptide human p136-144 (…)]	52%	
MFPNAPYLP [WT1 peptide P127-135 (…)]		2%
YSSDNLYQM [WT1 peptide p221-229 (…)]	0.8%	
QASSGQARM [WT1 peptide P119-127 (…)]		2%
QMTSQLECM [WT1 peptide p228-236 (…)]	1.2%	
NQMNLGATL [WT1 peptide p239-247 (…)]	1%	
ARMFPNAPY [WT1 peptide P125-133 (…)]		1%
QARMFPNAP [WT1 peptide P124-132 (…)]		1%
GCNKRYFKL [WT1 peptide p329-337 (…)]	1.2%	
FPNAPYLPS [WT1 peptide P128-136 (…)]		1%
NLYQMTSQL [WT1 peptide p225-233 (…)]	5.8%	
APYLPSCLE [WT1 peptide P131-139 (…)]		1%

Other lines, results leading:

Binding Affinity to Mouse MHC Class I (% increase of D^b or K^b on RMA-S cells) [1]	Binding Affinity to Mouse MHC Class I [2]	Binder
	2%	SQASSGQAR [WT1 peptide P118-126 (…)]
	2%	PSQASSGQA [WT1 peptide P117-125 (…)]
	1%	SSGQARMFP [WT1 peptide P121-129 (…)]
	79%	NAPYLPSCL [WT1 peptide P130-138 (…)]
	1%	PNAPYLPSC [WT1 peptide P129-137 (…)]
	1%	ASSGQARMF [WT1 peptide P120-128 (…)]
2.2%		ALLPAVPSL [WT1 peptide human p10-18 (…)]
